PMC12607630, “ZapC crosslinks FtsZ filaments through a dual-binding mechanism modulated by the intrinsically disordered linker of FtsZ in Escherichia coli” (mBio, 2025)
“And” between values parts separate entries of the source, which are not always exact repeats. Equal values may be shown once.

B2: FtsZ (wild-type, untagged) (natural protein, Escherichia coli, UniProt P0A9A6 1-383, looked up)
chain: MFEPMELTNDAVIKVIGVGGGGGNAVEHMVRERIEGVEFFAVNTDAQALRKTAVGQTIQIGSGITKGLGAGANPEVGRNAADEDRDALRAALEGADMVFIAAGMGGGTGTGAAPVVAEVAKDLGILTVAVVTKPFNFEGKKRMAFAEQGITELSKHVDSLITIPNDKLLKVLGRGISLLDAFGAANDVLKGAVQGIAELITRPGLMNVDFADVRTVMSEMGYAMMGSGVASGEDRAEEAAEMAISSPLLEDIDLSGARGVLVNITAGFDLRLDEFETVGNTIRAFASDNATVVIGTSLDPDMNDELRVTVVATGIGMDKRPEITLVTNKQVQQPVMDRYQQHGMAPLTQEQKPVAKVVNDNAPQTAKEPDYLDIPAFLRKQAD
notes: FtsZ, Escherichia coli; Made from the same 6×his-sumo-ftsZ plasmid as the fusion that the methods call full-length FtsZ; also called wild-type FtsZ; untagged FtsZ; source: E. coli BL21(DE3), plasmid pLY17, purified (Ni-NTA; 6×His-SUMO tag removed with Ulp1); not shown: 6×His, N-terminal, cleaved; SUMO, N-terminal, cleaved
B3: 6×His-ZapC (natural protein)
chain: not shown
notes: ZapC, Escherichia coli; also called His-tagged ZapC; source: E. coli, plasmid pSD323 (pQE80, Plac::6×His-ZapC), purified (Ni-NTA) as for FtsZ; not shown: 6×His, N-terminal, kept
B7: ZapC (untagged) (natural protein)
chain: not shown
notes: ZapC, Escherichia coli; also called untagged ZapC; source: E. coli, plasmid pLY28 (pE-SUMO-Amp, PT7::6×his-sumo-zapC), purified (Ni-NTA; 6×His-SUMO tag removed with Ulp1); not shown: 6×His, N-terminal, cleaved; SUMO, N-terminal, cleaved
B8: ZapC (untagged) (natural protein)
chain: not shown
notes: ZapC, FtsZ-associated protein of Escherichia coli; source: E. coli BL21(DE3), plasmid pLY28, purified (Ni-NTA); 6×His-SUMO tag removed with Ulp1; not shown: 6×His-SUMO, N-terminal, cleaved

Tests used:
Settings in all cases: both partners purified
6×His-ZapC = target: B3; assay: BLI; 6×His-ZapC or its mutants (0.5 µM) loaded on Ni-NTA biosensors; FtsZ or its variants in solution; Octet-Red96, 30°C, 1× Pol buffer (50 mM HEPES-NaOH pH 6.8, 50 mM KCl, 10 mM MgCl2); apparent Kd from the signal at the end of association, one-site fit
[1] = target: T1, 6×His-ZapC double mutant (F30D, K94D) (Escherichia coli, UniProt P75862 1-180, F30D | K94D); assay: as above
T1 construct: ZapC, Escherichia coli; The text calls it only 'the double mutant' after naming ZapC^F30D and ZapC^K94D; also called the double mutant; source: E. coli, derivative of pSD323, purified (Ni-NTA) as for FtsZ; not shown: 6×His, N-terminal, kept

[2] = target: B2; assay: as above
FtsZ^F285S (untagged) = target: T2, FtsZ^F285S (untagged) (Escherichia coli, UniProt P0A9A6 1-383, F285S); assay: as above
T2 construct: FtsZ, Escherichia coli; source: E. coli BL21(DE3), derivative of pLY17, purified (Ni-NTA; 6×His-SUMO tag removed with Ulp1); not shown: 6×His, N-terminal, cleaved; SUMO, N-terminal, cleaved
T2 sequence (looked up): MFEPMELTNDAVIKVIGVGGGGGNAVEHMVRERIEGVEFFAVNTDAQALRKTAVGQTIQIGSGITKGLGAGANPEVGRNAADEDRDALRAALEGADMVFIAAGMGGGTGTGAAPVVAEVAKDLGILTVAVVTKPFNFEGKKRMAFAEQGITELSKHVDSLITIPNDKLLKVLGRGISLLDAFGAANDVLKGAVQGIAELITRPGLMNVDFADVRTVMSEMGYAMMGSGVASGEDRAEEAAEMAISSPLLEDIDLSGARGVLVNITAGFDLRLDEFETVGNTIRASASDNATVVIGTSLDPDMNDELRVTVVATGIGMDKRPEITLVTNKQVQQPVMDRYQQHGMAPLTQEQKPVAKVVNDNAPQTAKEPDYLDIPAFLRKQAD

ZapC (untagged) [3] = target: B8; assay: BLI; 6×His-SUMO fusions of FtsZ or its parts, or SUMO alone (0.5 µM), held on Ni-NTA biosensors, untagged ZapC in solution; Octet-Red96, 30°C, 1× Pol buffer (50 mM HEPES-NaOH pH 6.8, 50 mM KCl, 10 mM MgCl2); apparent Kd from the signal at the end of association against concentration, one-site fit; three repeats with mean (X) and SD
ZapC (untagged) [4] = target: B7; assay: BLI; SUMO fusions of FtsZ or its parts, or SUMO alone (0.5 µM), held on Ni-NTA biosensors; untagged ZapC in solution; Octet-Red96, 30°C, 1× Pol buffer; apparent Kd from the signal at the end of association, one-site fit
[5] = target: T3, FtsZ (untagged, wild type) (Escherichia coli, UniProt P0A9A6 1-383); assay: BLI; 6×His-ZapC or its mutants (0.5 µM) loaded on Ni-NTA biosensors, untagged FtsZ or its variants in solution; Octet-Red96, 30°C, 1× Pol buffer (50 mM HEPES-NaOH pH 6.8, 50 mM KCl, 10 mM MgCl2); apparent Kd from the signal at the end of association against concentration, one-site fit; three repeats with mean (X) and SD
T3 construct: also called wild-type FtsZ; source: E. coli BL21(DE3), plasmid pLY17, purified (Ni-NTA); 6×His-SUMO tag removed with Ulp1; not shown: 6×His-SUMO, N-terminal, cleaved
T3 sequence (looked up): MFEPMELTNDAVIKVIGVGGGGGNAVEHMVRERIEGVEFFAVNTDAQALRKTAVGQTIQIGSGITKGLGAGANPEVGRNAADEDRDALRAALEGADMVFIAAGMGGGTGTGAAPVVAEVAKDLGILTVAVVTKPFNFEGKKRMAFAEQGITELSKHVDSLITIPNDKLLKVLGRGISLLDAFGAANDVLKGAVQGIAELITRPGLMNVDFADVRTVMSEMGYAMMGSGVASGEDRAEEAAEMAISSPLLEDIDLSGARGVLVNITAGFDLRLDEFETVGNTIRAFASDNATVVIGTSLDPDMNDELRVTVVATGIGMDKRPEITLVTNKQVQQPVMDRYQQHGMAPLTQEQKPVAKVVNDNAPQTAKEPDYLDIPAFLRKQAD

SUMO-FtsZ = target: T4, SUMO-FtsZ (Escherichia coli, UniProt P0A9A6 1-383); assay: BLI; SUMO fusions of FtsZ or its parts, or SUMO alone (0.5 µM), held on Ni-NTA biosensors; untagged ZapC in solution; Octet-Red96, 30°C, 1× Pol buffer; apparent Kd from the signal at the end of association, one-site fit
T4 construct: FtsZ, Escherichia coli; also called 6×His-SUMO-FtsZ; SUMO fusion containing full-length FtsZ; source: E. coli BL21(DE3), plasmid pLY17 (pE-SUMO-Amp, PT7::6×his-sumo-ftsZ), purified (Ni-NTA); not shown: 6×His, N-terminal, kept; SUMO, N-terminal, kept
T4 sequence (looked up): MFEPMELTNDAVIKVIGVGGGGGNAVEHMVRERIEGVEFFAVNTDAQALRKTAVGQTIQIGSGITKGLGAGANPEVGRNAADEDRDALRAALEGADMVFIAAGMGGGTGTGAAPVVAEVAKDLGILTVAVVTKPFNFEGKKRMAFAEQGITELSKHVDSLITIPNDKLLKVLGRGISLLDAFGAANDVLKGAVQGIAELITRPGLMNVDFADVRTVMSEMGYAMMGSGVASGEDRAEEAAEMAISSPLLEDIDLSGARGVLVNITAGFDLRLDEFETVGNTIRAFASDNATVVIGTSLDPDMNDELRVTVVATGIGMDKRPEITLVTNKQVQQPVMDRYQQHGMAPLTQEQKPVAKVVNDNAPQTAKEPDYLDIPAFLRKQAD

6×His-SUMO-FtsZ = target: T5, 6×His-SUMO-FtsZ (Escherichia coli, UniProt P0A9A6 1-383); assay: BLI; 6×His-SUMO fusions of FtsZ or its parts, or SUMO alone (0.5 µM), held on Ni-NTA biosensors, untagged ZapC in solution; Octet-Red96, 30°C, 1× Pol buffer (50 mM HEPES-NaOH pH 6.8, 50 mM KCl, 10 mM MgCl2); apparent Kd from the signal at the end of association against concentration, one-site fit; three repeats with mean (X) and SD
T5 construct: FtsZ of Escherichia coli, full length, fused behind 6×His-SUMO; Forward primer BsaI-out-F starts the FtsZ insert at codon 2; source: E. coli BL21(DE3), plasmid pLY17, purified (Ni-NTA); not shown: 6×His-SUMO, N-terminal, kept
T5 sequence (looked up): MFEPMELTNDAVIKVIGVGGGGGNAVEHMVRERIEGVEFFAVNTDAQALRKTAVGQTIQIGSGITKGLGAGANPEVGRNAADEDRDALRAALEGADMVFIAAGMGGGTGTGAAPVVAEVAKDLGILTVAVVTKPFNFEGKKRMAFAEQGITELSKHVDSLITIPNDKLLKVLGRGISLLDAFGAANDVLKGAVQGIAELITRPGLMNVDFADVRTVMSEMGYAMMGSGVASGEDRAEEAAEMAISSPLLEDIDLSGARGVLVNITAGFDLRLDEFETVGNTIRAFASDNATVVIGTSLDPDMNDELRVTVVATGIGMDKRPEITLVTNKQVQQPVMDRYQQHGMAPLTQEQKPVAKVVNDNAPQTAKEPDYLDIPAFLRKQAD

B1: FtsZ^1–370 (domain or fragment, Escherichia coli, UniProt P0A9A6 1-370, looked up)
chain: MFEPMELTNDAVIKVIGVGGGGGNAVEHMVRERIEGVEFFAVNTDAQALRKTAVGQTIQIGSGITKGLGAGANPEVGRNAADEDRDALRAALEGADMVFIAAGMGGGTGTGAAPVVAEVAKDLGILTVAVVTKPFNFEGKKRMAFAEQGITELSKHVDSLITIPNDKLLKVLGRGISLLDAFGAANDVLKGAVQGIAELITRPGLMNVDFADVRTVMSEMGYAMMGSGVASGEDRAEEAAEMAISSPLLEDIDLSGARGVLVNITAGFDLRLDEFETVGNTIRAFASDNATVVIGTSLDPDMNDELRVTVVATGIGMDKRPEITLVTNKQVQQPVMDRYQQHGMAPLTQEQKPVAKVVNDNAPQTAKEPD
notes: FtsZ, Escherichia coli, residues 1-370; Plasmid construction is in the Supplemental Information; also called FtsZ lacking the CTP; source: E. coli BL21(DE3), SUMO-tag purification system, purified; not shown: 6×His, N-terminal, cleaved; SUMO, N-terminal, cleaved
fold decrease of affinity against wild-type FtsZ (6×His-ZapC): ~3 fold

B2
fold increase of Kd against wild-type ZapC [1]: 12 fold

B3
Kd [2]: 0.39 µM | Kd (FtsZ^F285S (untagged)): 6.37 µM

B4: 6×His-SUMO-FtsZ 316-383 (domain or fragment, Escherichia coli, UniProt P0A9A6 316-383, looked up)
chain: GMDKRPEITLVTNKQVQQPVMDRYQQHGMAPLTQEQKPVAKVVNDNAPQTAKEPDYLDIPAFLRKQAD
notes: source: E. coli BL21(DE3), plasmid pLY342, purified (Ni-NTA); not shown: 6×His-SUMO, N-terminal, kept
Kd (ZapC (untagged) [3]): 11.2 µM and 10.4 µM and 8.11 µM and 9.89 µM

B5: SUMO-FtsZ^316-383 (domain or fragment, Escherichia coli, UniProt P0A9A6 316-383, looked up)
chain: GMDKRPEITLVTNKQVQQPVMDRYQQHGMAPLTQEQKPVAKVVNDNAPQTAKEPDYLDIPAFLRKQAD
notes: Held on Ni-NTA biosensors; plasmid construction is in the Supplemental Information; also called SUMO fusion containing the CTL and CTP; source: E. coli, purified SUMO fusion; not shown: 6×His, N-terminal, kept; SUMO, N-terminal, kept
Kd (ZapC (untagged) [4]): 10 µM

B6: 6×His-ZapC F30D, K94D (natural protein)
chain: not shown
notes: ZapC of Escherichia coli with F30D and K94D; Derivative of pSD323 by site-directed mutagenesis; also called ZapC^F, K; -ZapCF, K; source: E. coli, plasmid pLY317 (pQE80L, Plac::6Xhis-zapC F30D, K94D), purified (Ni-NTA); not shown: His6, N-terminal, kept
Kd [5]: 6.39 µM and 5.16 µM and 4.77 µM and 5.44 µM

B7
Kd (SUMO-FtsZ): 1.5 µM

B8
Kd (6×His-SUMO-FtsZ): 1.5 µM and 1.28 µM and 1.9 µM and 1.56 µM
